The data set deals with the molecule itself. Kind of data set: co-sedimentation.

Here are results for 1 protein from publication PMC12003865 (Scientific Reports, 2025).

B1: apoA-IV 1‒70/K58E variant (domain or fragment, human)
chain: GPEVSADQVATVMWDYFSQLSNNAKEAVEHLQKSELTQQLNALFQDKLGEVNTYAGDLQEKLVPFATELHER
Turning to B1, the binding result is listed as “binds”.
